The source of these data is article PMC2715241 (Nucleic Acids Research, 2009).

Usually stoichiometry N stands for a count of units in the complex or per binding partner.

This data set deals with the molecule itself. The data set is described as follows: AUC.

B1: histidine tagged MutL–NTD (domain or fragment, E. coli, UniProt P23367 1-375, looked up)
chain: MPIQVLPPQLANQIAAGEVVERPASVVKELVENSLDAGATRIDIDIERGGAKLIRIRDNGCGIKKDELALALARHATSKIASLDDLEAIISLGFRGEALASISSVSRLTLTSRTAEQQEAWQAYAEGRDMNVTVKPAAHPVGTTLEVLDLFYNTPARRKFLRTEKTEFNHIDEIIRRIALARFDVTINLSHNGKIVRQYRAVPEGGQKERRLGAICGTAFLEQALAIEWQHGDLTLRGWVADPNHTTPALAEIQYCYVNGRMMRDRLINHAIRQACEDKLGADQQPAFVLYLEIDPHQVDVNVHPAKHEVRFHQSRLVHDFIYQGVLSVLQQQLETPLPLDDEPQPAPRSIPENRVAAGRNHFAEPAAREPVAPR
For B1, the “stoichiometry N” value was 2.
